The record followed here is paper PMC6761149.

The target in assay [1] is light-dependent protochlorophyllide oxidoreductase of Thermosynechococcus elongatus BP-1 (TeLPOR) (Thermosynechococcus elongatus BP-1) (UniProt Q8DLC1). The assay can be described thus: SAXS; ESRF BM29, 10 °C, 20 mM Tris/HCl pH 7.5, 500 mM NaCl, 20% (v/v) glycerol; apoprotein (no NADPH, no Pchlide), concentration series, apo 2 dataset merged from low and high concentration; dimer content assuming only monomers and dimers.

Assay [2] has the same target. Briefly: AUC; sedimentation velocity with multiwavelength absorbance optics (MWA-AUC), 20 °C, 50 krpm, c(s) model in SEDFIT; apoprotein (no NADPH, no Pchlide), 0.615 mg ml^-1 (1.23 mg ml^-1 diluted to half with reaction buffer).

In assay [1], “light-dependent protochlorophyllide oxidoreductase of Thermosynechococcus elongatus BP-1 (TeLPOR) (from UniProt Q8DLC1 1-322) (enzyme)” returned a dimer content (%) from I(0) (apoprotein, without NADPH and Pchlide) of 0%; a dimer content (%) from Vp (apoprotein, without NADPH and Pchlide) of 1.7%. Further, the percent dimers (apoprotein, without NADPH and Pchlide) in assay [2] was 3.6%.
